Kd data for 3 molecules are collected here from patent US20210139964, “RNA TAGGING SYSTEM FOR VISUALIZATION OF SINGLE MRNA MOLECULES” (ALBERT EINSTEIN COLLEGE OF MEDICINE, published 2021).

Where two headings read alike, the source gives them in different places.

Data set [1] has as its target MS2 coat protein (literature) (Enterobacteria phage MS2) (UniProt P03612). The following applies: CITED Lowary and Uhlenbeck 1987, cited from earlier work.
A further data set concerns the target MS2 coat protein (MCP) (Enterobacteria phage MS2, UniProt P03612 P03612:2-130). The data set can be described thus: EMSA; sub-nanomolar; exact value only in figure; about 10-fold tighter than wt (p109); 10 mM Tris, 100 mM NaCl, 0.1 mM EDTA, tRNA, heparin, room temperature, 3 h. The following applies: tags: MBP-TEV N-terminal, C-terminal 6xHis (plasmid pET336, E. coli Rosetta2); chain copies: 2 (inferred); label: 5' fluorescein; hairpin. As to the method: Design of a new MBS-MCP system faithfully recapitulating mRNA kinetics —We considered four variables that could influence the ability of the MS2 array to block degradation by […] when MCP is bound. First, the loop sequence can affect the affinity of MCP for the stem. […] The current MBSV5 and MBSORF versions have a U to C change in position −5 of all loops (FIG. 2A-C). We compared the high affinity C-variant loops to the wt-loops (FIG. 2D). The affinities of the MBS-MCP binding were analyzed by electrophoretic mobility shift assay (EMSA). As a control, we used the original loop sequence from the bacteriophage with a U or a C at position −5. In addition, C or U variants were generated for two MS2 loops (Loop1 and Loop2), each of them with a different stem sequence (FIG. 2D). Apparent equilibrium dissociation constants (Kd) were extracted from plots of MCP bound versus free (FIG. 2E-G).
Complexes were monitored and quantified by EMSA as previously described (Chao et al., 2008). In brief, 100 pM RNAs were incubated at room temperature for three hours with 2 fold dilutions of MCP in 10 mM Tris, 100 mM NaCl, 0.1 mM EDTA, 0.01 mg/mL tRNA, […] heparin and 0.01% IGEPAL CA630. Complexes were then run using 5% native PAGE in 0.5×TBE and visualized using the Typhoon 9400 variable mode laser scanner (GE Healthcare).
On the technique in general: A gel shift assay detects complexes by their altered migration in electrophoresis.

For orientation: Kd means the free concentration of one partner at which half of the binding sites on the other are occupied at equilibrium, for simple one-to-one binding.

Chain of MS2 coat protein (literature) (Enterobacteria phage MS2) (P03612 2-130): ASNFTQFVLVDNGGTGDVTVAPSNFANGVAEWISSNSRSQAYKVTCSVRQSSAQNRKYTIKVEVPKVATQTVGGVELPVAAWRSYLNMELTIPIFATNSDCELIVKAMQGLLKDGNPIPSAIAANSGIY
Chain of MS2 coat protein (MCP) (P03612 2-130, one chain of several): as the sequence (P03612 2-130) above

As for “MS2 C-variant operator loop (literature)”, in data set [1] (dissociation about 90 times slower than wt), the Kd is 1 nM.
With MS2 wt operator loop (literature), in data set [1] (Valegard et al.), the Kd is 10 nM.

B1: MS2 C-variant stem loop (ssRNA)
RNA: ACAUGAGGAUCACCCAUGU
In the case of B1, in the data set with MS2 coat protein (MCP), the Kd is less than 1 nM.
